For data set [1], the target named is T1, TFIIB (UniProt Q00403).
T1 sequence: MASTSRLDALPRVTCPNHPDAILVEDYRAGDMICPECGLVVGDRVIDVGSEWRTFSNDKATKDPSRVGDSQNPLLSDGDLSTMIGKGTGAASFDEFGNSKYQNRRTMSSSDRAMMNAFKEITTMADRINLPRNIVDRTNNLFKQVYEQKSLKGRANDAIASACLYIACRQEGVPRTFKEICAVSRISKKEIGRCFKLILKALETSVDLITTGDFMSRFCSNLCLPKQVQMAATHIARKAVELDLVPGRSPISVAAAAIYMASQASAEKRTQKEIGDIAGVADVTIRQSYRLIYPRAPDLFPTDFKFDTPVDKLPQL
Briefly: BLI. The following applies: BLI (ForteBio Octet QK), streptavidin sensors loaded with biotinylated DNA 25 ug/ml, 1x Kinetics Buffer (ForteBio); salt, pH and temperature not stated. (In general: Biolayer interferometry detects binding as a change in optical thickness at a sensor tip.)

Data set [2] addresses TFIIB (UniProt Q00403 1-316). Briefly: BLI; kon 3.03E+04 1/Ms; koff 1.93E-03 1/s; 270 nM TFIIB; BLI (ForteBio Octet QK), streptavidin sensors loaded with biotinylated DNA 25 ug/ml, 1x Kinetics Buffer (ForteBio); salt, pH and temperature not stated. The conditions noted are these: protein: commercial; label: 5' biotin (one strand, PCR primer).

By Kd is commonly meant a measure of binding affinity in units of concentration.

As to “TCGACGCGCGTATAACACGCGAGCGGTTCGAACGTTGGCGCGCTAACGCGAGTCGTACGCCCGTCAACGCGGATCAATCGCGCGACTTGTGCGCGACGTTAGACCGCCGATCGTCAAGCGCCGATCGGTAATCGGACGATTCGGATACGCGAGTTCGGACGTACGAGCGTGATACGGCGCGTAACGGTGCGCGTTAAAACGCCGACGCGTCATAACCGCGACTCGTCGACGC (double strand) [ArS232]”, the Kd with TFIIB [1] is 84.5 nM.

For the molecule “AACGGTGCGCGTTAAAACGGCCGACGCGTCATAACCGCGACTCGTCGACGCAGCGCCGGCGTATAAGCGCGCCGTACGTCAACCGTCGACGTTAGTCCGACGATCGCGGCGTCTATACGCCGCGTCAATCGCGCGCGGTTCAACGTCGCGCTACGGGCGCGTATAAGTCGCGCGTATGGACCGCGTACGTCCTACGAGCGT (double strand) [ArS201]”, the equilibrium dissociation constant (Kd) in the data set with TFIIB [1] stood at 77.6 nM.

Take “AACGGTGCGCGTTAAAACGCCGACGCGTCATAACCGCGACTCGTCGACGCAGCGCCGGCGTATAAGCGCGCCGTACGTCAACCGTCGACGTTAGTCCGACGATCGCGGCGTCTATACGCCGCGTCAATCGCGCGCGGTTCAACGTCGCGCTACGGGCGCGTATAAGTCGCGCGGTTAATACGCGCGGTGTACGCGGATGCCGGGGTCGCGTATAATCGGCGCGTATACCTCGCGCGTATACGCGGCGTATTACGGCCGCGTATAATTCGCGCGTATGGACCGCGTACGTCCTACGAGCGT (double strand) [ArS300]”: in the data set with TFIIB [1], the Kd came out at 64.6 nM.

B1: ArS110 (dsDNA)
DNA 1: CTACGCCGCGTAAATATCGCGCGCTAACGGTGCGCGTTAAAACGCCGACGCGTCATAAAGCGCCGGCGTATAAGCGCGCCGTACGTCGTCGAACCACGTTAGTCCGGACC
DNA 2: GGTCCGGACTAACGTGGTTCGACGACGTACGGCGCGCTTATACGCCGGCGCTTTATGACGCGTCGGCGTTTTAACGCGCACCGTTAGCGCGCGATATTTACGCGGCGTAG
B1: the Kd with TFIIB [2] came to 63.7 nM.
